From patent US20140050743A1, “BINDING PROTEINS TO INHIBITORS OF COAGULATION FACTORS” (BAYER INTELLECTUAL PROPERTY GMBH, priority 2011, published 2014) come the findings set out here.

Assay [1] concerns rivaroxaban (prothrombin time). Put plainly: Reversal of rivaroxaban's effect on prothrombin time (PT) in vitro, rat plasma. The class given is biochemical. The method, then: (§1) Citrated blood (0.11 M Na-citrate/blood, 1:9 v/v) was obtained from human donors by venipuncture or from anesthetized Wistar rats (Charles River) by aortic cannulation and centrifuged at 4000 g for 15 minutes for separation of platelet-poor plasma. […] Antidote was added to the Plasma-rivaroxaban mixture and incubated for another 10 minutes at room temperature. The PT assay was run using Recombiplastin (Instrumentation Laboratory) as tissue factor source on an AMAX 200 automated coagulometer (Trinity Biotech) according to manufacturer's instructions. The composition of the final assay volume is ⅓ plasma and ⅔ PT reagent. […] Data are given as means±sem from 5 experiments and represent final assay concentrations (Table 8 and FIGS. 7 and 8).

In assay [2] the test system is rivaroxaban (prothrombin time). Put plainly: Reversal of rivaroxaban's effect on prothrombin time (PT) in vitro, human plasma. Format: biochemical. The method, then:
as §1

Assay [3] is described as follows: ELISA-based activity assay of antibody variants without a competition step. Format: binding. More on the design: key: +++: Variants with an average ratio above reference plus 2×SD; +/−: variants with a ratio below reference minus 2×SD; ++: All variants with a performance in between both thresholds; −: Variants with a ratio below 0.5. The note with it: Table 10, multiple substitutions within M14-G07, variant to reference ratio (reference 2-fold improved over wt). The protocol:
To determine the activity of the mutated antibody variants on compound from Example 1K an equilibrium or dissociation limited ELISA assay format was used. Briefly, MTP plates (Nunc Maxisorp black, 460518) were coated with 4 μg/ml streptavidin (Calbiochem, 189730) diluted in coating buffer (Candor Bioscience GmbH, 121500) and incubated over night at 4° C. After washing with PBST, plates were blocked with 100% Smart Block (Candor Bioscience GmbH, 113500) in PBST for 1 h at room temperature and the washing step was repeated. Plates were incubated with compound from Example 1K at varying concentrations (0.3-200 nM) for 1 h at 37° C., washed with PBST and antibody fragments were immobilized by adding 25 μl of the crude bacterial cultures for 1 h at room temperature. After washing with PBST a competition step or the immediate detection was performed. […] For the detection of the residually bound Fabs a HRP-coupled anti-lambda antibody (Sigma, A5175) diluted in 10% Smart Block in PBST was added for 1 h at room temperature. After washing 10 μM Amplex Red (Invitrogen, A12222) were added and incubated for 10 to 30 min at room temperature followed by measurement of the fluorescence signal.
Provided in Table 9 are several examples of single and/or double amino acid substitutions introduced into the heavy and/or the light chain of M14-G07 (wt). Performance of the variants was analyzed in quadruples in the ELISA without a competition step and the FXa deinhibition assay (FXa DIA). In the ELISA, averages were calculated and normalized to the respective average expression level. Overall performance of variants was evaluated by comparing the variant to wt ratio from 2-3 independent experiments. Variants with an average ratio above wt plus 2×SD (standard deviation of the ratio) were considered as improved and are marked with “++”, whereas variants with a ratio below wt minus 2×SD were considered as reduced in their binding affinity and are marked with “−”. All variants with a performance in between both thresholds are marked with “+/−”. Variants with average fluorescence counts below the negative control (non-expressing cells) plus 3×SD were considered as non-binding and marked with “−−” with none of the variants fulfilling this criteria. In the FXa deinhibition assay averages were calculated and overall performance of variants was evaluated by comparing the variant to wt ratio from 2-3 independent experiments. Variants with an average ratio above wt plus 2×SD were considered as improved and are marked with “++”, whereas variants with a ratio below wt minus 2×SD were considered as either reduced in their binding affinity or non-binding and are marked with “−−”. All variants with a performance in between both thresholds are marked with “+/−”. Variants not analyzed are marked with “nd” (not determined). CDRs were defined according to Kabat.
Provided in Table 10 are examples of combined amino acid substitutions within M14-G07 antibodies. While not every combination is provided in Table 10, it is contemplated that the anti-rivaroxaban antibody may comprise any combination of modifications provided. Variant performance was analyzed in quadruples in the ELISA without a competition step. Averages were calculated, average background signals determined on a streptavidin coated plate without compound from Example 1K were subtracted if the compound from Example 1K concentration used for coating was below 10 nM and signals were normalized to the respective average expression level. Overall performance of variants was evaluated by comparing the variant to reference ratio from 2-3 independent experiments using a 2-fold improved reference variant as compared to wt. Variants with an average ratio above reference plus 2×SD are marked with “+++”, whereas variants with a ratio below reference minus 2×SD are marked with “+/−”. All variants with a performance in between both thresholds are marked with “++”. […]

Assay [4] concerns rivaroxaban induced FXa inhibition. Put plainly: Functional neutralization of rivaroxaban in a biochemical Factor Xa activity assay. The note with it: Table 6, 0.05 nM FXa, 0.6 nM rivaroxaban. The method, then:
Serial dilutions of test compounds in assay buffer (50 mM HEPES pH 7.8, 250 mM NaCl, 6 mM CaCl2, 0.01% Brij35, 1 mM glutathione, 4 mM EDTA, 0.05% bovine serum albumin) were performed (typical concentrations ranging from 5 μM to 0.0007 μM).
20 μL of the diluted test compounds were placed in 384 well microtiter plates (Greiner, Frickenhausen, Germany), followed by the addition of 10 μL of a 1:400 dilution (250 μM) of the FXa substrate Pefafluor Xa (100 mM in DMSO, Loxo, Dossenheim, Germany) in assay buffer. […] Simultaneously, control reactions without rivaroxaban were started.
During incubation at 32° C., reaction progress curves were monitored using a fluorescence microtiter plate reader (e.g Tecan Ultra Evolution, Tecan Group Ltd., Mannedorf, Switzerland; excitation 360 nm, emission 465 nm).
The dilution of FXa was chosen that in the control reactions the reaction kinetics was linear, and less than 50% of the substrate was consumed (typical final FXa concentration in the assay: 0.05 nM). […] Results are depicted in FIG. 1.

Assay [5] in a line: Affinity by surface plasmon resonance (Biacore), immobilized Fab, analyte rivaroxaban. The class given is binding. The note with it: Table 6, immobilized Fabs, SPR (Biacore). The text has this: “Binding affinity” refers to the strength of the sum total of noncovalent interactions between a single binding site of a molecule and its binding partner. Unless indicated otherwise, as used herein, “binding affinity” refers to intrinsic binding affinity which reflects a 1:1 interaction between members of a binding pair (e.g. an antibody and an antigen). The dissociation constant “KD” is commonly used to describe the affinity between a molecule (such as an antibody) and its binding partner (such as an antigen) i.e. how tightly a ligand binds to a particular protein. Ligand-protein affinities are influenced by non-covalent intermolecular interactions between the two molecules Affinity can be measured by common methods known in the art, including those described herein. In one embodiment, the “KD” or “KD value” according to this invention is measured by using surface plasmon resonance assays using a Biacore T100 instrument (GE Healthcare Biacore, Inc.) according to Example 5. The dissociation equilibrium constant (KD) was calculated based on the ratio of association (kon) and dissociation rated (koff) constants, obtained by fitting sensograms with a first order 1:1 binding model using Biacore Evaluation Software. Other suitable devices are BIACORE(R)-2000, a BIACORE (R)-3000 (BIAcore, Inc., Piscataway, N.J.), or ProteOn XPR36 instrument (Bio-Rad Laboratories, Inc.).
Binding affinities of Fab-fragments were determined by surface plasmon resonance analysis on a Biacore T100 instrument (GE Healthcare Biacore, Inc.). Fab fragments were diluted to a final concentration of 10 μg/ml in 10 mM sodium acetate, pH 4.5, and immobilized on a CM5 chip (GE Healthcare Biacore, Inc.) at levels of 3000-5000RU by amine-coupling chemistry for flow cells 2, 3 and 4, respectively. Flow cell 1 was used as a reference. […] Sensograms were generated after in-line reference cell correction followed by buffer sample subtraction. The dissociation equilibrium constant (KD) was calculated based on the ratio of association and dissociation rated constants, obtained by fitting sensograms with a first order 1:1 binding model using BiaEvaluation Software.

Substitutions are numbered along the chain they refer to.

For `O=C(NC[C@H]1CN(c2ccc(N3CCOCC3=O)cc2)C(=O)O1)c1ccc(Cl)s1` [Rivaroxaban, 5-Chloro-N-({(5S)-2-oxo-3-[4-(3-oxo-4-morpholinyl)phenyl]-1,3-oxazolidin-5-yl}-methyl)-2-thiophenecarboxamide, reference compound], the “PT prolongation by rivaroxaban (x control)” value in assay [1] (rivaroxaban 0.4 μM) is on record as 1.9 x control; in assay [1] (rivaroxaban 0.8 μM), 2.6 x control; in assay [2] (rivaroxaban 0.17 μM) it was 1.8 x control; in assay [2] (rivaroxaban 0.33 μM), 2.2 x control.

B1: M14-G07-34: antibody, Vh SEQ ID NO: 193, Vl SEQ ID NO: 194 (antibody, listed as Homo Sapiens, V domains shown)
VH: EVQLLESGGGLVQPGGSLRLSCAASGFRFSSYAMSWVRQAPGKGLEWVGGISGSGGSTYYADSVKGRFTISRDNSKNTLYLQMNSLRAEDTAVYYCARQGRTSFYLDVWGQGTLVTVSS
VL: QSVLTQPPSASGTPGQRVTISCSGSTSNIGSYYVYWYQQLPGTAPKLLIYDNRQRPSGVPDRFSGSKSGTSASLAISGLRSEDEADYYCVAWDDSLSGTWVFGGGTKLTVL
Turning to B1, the ELISA result in assay [3] is on record as “+++”.

B2: M14-G07-1: antibody, Vh SEQ ID NO: 127, Vl SEQ ID NO: 128 (antibody, listed as Homo Sapiens, V domains shown)
VH: B1 VH
VL: B1 VL with T26S, S27R, Y32F, R53N, L96W
With B2, the ELISA result in assay [3] was “+++”.

B3: M14-G07-2: antibody, Vh SEQ ID NO: 129, Vl SEQ ID NO: 130 (antibody, listed as Homo Sapiens, V domains shown)
VH: B1 VH with R28T
VL: B1 VL with S23C, T26S, S27R, R53N, L96W
Consider B3, for which the ELISA result in assay [3] was “+++”.

B4: M14-G07-37: antibody, Vh SEQ ID NO: 199, Vl SEQ ID NO: 200 (antibody, listed as Homo Sapiens, V domains shown)
VH: B1 VH with R28T, G49S, Q99E, R101E
VL: B1 VL with T26S, R53N, L96W, T99H
Take B4: the ELISA entry in assay [3] was “+++”.

B5: M18-A10: antibody, Vh SEQ ID NO: 215, Vl SEQ ID NO: 216 (antibody, listed as Homo Sapiens, V domains shown)
VH: EVQLLESGGGLVQPGGSLRLSCAASGFTFSSYGMSWVRQAPGKGLEWVSGISGSGGSTYYADSVKGRFTISRDNSKNTLYLQMNSLRAEDTAVYYCARDGGYDELDYWGQGTLVTVTS
VL: QSVLTQPPSASGTPGQRVTISCTGSSSNIGAGYVVHWYQQLPGTAPKLLIYDNNKRPSGVPDRFSGSKSGTSASLAISGLRSEDEADYYCAAWDDSLSAWVFGGGTKLTVL
In turn, B5 yielded an EC50 in assay [4] below 1000 nM. In addition, in assay [5], the Kd is below 500 nM.

B6: M16-A03: antibody, Vh SEQ ID NO: 211, Vl SEQ ID NO: 212 (antibody, listed as Homo Sapiens, V domains shown)
VH: EVQLLESGGGLVQPGGSLRLSCAASGFTFSSYAMSWVRQAPGKGLEWVSGISGSGGSTFYADSVKGRFTISRDNSENTLYLQMNSLRAEDTAVYYCARQTSSGLAGYSYGLDPWGQGTLVTVTS
VL: B5 VL with V34D, D52S, K55Q, A92G, A99G
The molecule B6 came in with an EC50 in assay [4] below 2000 nM. Besides, the Kd in assay [5] was below 500 nM.

B7: M16-D05: antibody, Vh SEQ ID NO: 213, Vl SEQ ID NO: 214 (antibody, listed as Homo Sapiens, V domains shown)
VH: EVQLLESGGGLVQPGGSLRLSCAASGFTFSAYWMAWVRQAPGKGLEWVSSISSSSSYIYYADSVKGRFTISRDNSKNTLYLQMNSLRAEDTAVYYCARVTEGGLDYWGQGTLVTVTS
VL: QSVLTQPPSASGTPGQRVTISCSGSSSNIGNNAVNWYQQLPGTAPKLLIYRNNQRPSGVPDRFSGSKSGTSASLAISGLRSEDEADYYCQSYDSSLSGWVFGGGTKLTVL
In assay [4], B7 came in with an EC50 below 1000 nM. This molecule had a Kd in assay [5] below 500 nM.

B8: M25-E05: antibody, Vh SEQ ID NO: 219, Vl SEQ ID NO: 220 (antibody, listed as Homo Sapiens, V domains shown)
VH: EVQLLESGGGLVQPGGSLRLSCAASGFTFSNAWMSWVRQAPGKGLEWVSSIHWNGGYIGYAESVKGRFTISRDNSKNTLYLQMNSLRAEDTAVYYCARVTLDAVDYWGQGTLVTVTS
VL: B7 VL with S94N, S95R, S97T, G98A
B8 displayed an EC50 in assay [4] below 1000 nM. Besides, the Kd in assay [5] is below 500 nM.
